Measured values published in patent US20240067734A1 (Hoffmann-La Roche, published 2024).

T1: CEA expressed on LS180 tumor cells (human, UniProt P06731 35-685)
T1 construct: whole, on cells; also called carcinoembryonic antigen; CEACAM5
T1 sequence (looked up): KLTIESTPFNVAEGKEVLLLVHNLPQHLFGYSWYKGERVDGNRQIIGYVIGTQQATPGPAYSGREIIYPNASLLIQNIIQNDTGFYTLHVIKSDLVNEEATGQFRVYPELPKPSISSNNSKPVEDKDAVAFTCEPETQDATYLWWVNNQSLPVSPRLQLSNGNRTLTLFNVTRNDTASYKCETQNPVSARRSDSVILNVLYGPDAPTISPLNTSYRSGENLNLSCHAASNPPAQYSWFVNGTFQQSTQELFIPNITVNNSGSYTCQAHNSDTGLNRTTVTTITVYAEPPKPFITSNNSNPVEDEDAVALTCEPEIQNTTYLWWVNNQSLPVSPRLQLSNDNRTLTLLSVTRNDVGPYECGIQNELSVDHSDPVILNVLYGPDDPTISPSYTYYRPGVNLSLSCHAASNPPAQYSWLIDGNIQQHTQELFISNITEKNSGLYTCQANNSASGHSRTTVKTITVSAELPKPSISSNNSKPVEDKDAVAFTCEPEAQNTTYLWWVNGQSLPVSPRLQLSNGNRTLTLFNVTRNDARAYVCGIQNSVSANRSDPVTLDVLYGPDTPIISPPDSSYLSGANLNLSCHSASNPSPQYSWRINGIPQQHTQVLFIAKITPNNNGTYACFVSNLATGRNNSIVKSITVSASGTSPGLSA

T2: human NKG2D expressed on cells (human, UniProt P26718 1-216)
T2 construct: the cell type is named under assay; also called NKG2D on NK92 cells; HEK293T human NKG2D
T2 chain: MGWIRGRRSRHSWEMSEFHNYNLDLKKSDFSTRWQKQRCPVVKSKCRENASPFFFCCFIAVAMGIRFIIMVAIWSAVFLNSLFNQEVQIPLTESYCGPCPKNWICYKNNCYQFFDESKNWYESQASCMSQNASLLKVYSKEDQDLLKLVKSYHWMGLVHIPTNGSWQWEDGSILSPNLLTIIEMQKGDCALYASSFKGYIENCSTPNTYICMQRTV

T3: his avi huNKG2D ECD (human, biotinylated at the avi-tag (in the ELISA))
T3 construct: Human NKG2D ECD with N-terminal H6-avi tags, forms non-covalent dimers; also called recombinant human NKG2D
T3 chain: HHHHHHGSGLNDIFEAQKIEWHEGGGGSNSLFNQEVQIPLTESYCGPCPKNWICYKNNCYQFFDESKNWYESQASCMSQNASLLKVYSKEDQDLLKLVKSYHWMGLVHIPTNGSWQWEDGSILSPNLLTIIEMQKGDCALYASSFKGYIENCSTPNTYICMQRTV

T4: hu N(A2B2)A-avi-His (human)
T4 construct: Construct containing the A2 domain of human CEA, with avi and His tags; also called human CEA (A2 domain)
T4 chain: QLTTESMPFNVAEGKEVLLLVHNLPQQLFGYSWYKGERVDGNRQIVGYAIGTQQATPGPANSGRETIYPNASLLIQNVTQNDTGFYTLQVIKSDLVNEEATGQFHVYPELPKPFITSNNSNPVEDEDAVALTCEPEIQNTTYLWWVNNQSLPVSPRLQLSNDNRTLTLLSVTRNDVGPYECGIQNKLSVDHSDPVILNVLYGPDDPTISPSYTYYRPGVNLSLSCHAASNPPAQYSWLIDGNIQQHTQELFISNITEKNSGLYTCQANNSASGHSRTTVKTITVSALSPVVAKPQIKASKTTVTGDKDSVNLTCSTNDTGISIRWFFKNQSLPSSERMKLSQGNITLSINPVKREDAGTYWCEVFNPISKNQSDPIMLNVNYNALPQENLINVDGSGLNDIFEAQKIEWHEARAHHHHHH


How the values were obtained:
[1] = target: T1, CEA expressed on LS180 tumor cells; assay: flow cytometry on CEA-positive LS180 cells, anti-human Fc secondary antibody
Method: (§1) Viability of NK92 cells or tumor cells (MKN-45, LS180) was checked and cells were re-suspended and adjusted to a density of 1 mio cells/ml. 100 μl per well of this cell suspension (containing 0.1 mio cells) were seeded into a 96 well round bottom plate. The plate was centrifuged for 4 min at 400×g and the supernatant was removed. Then 40 μl of the diluted antibodies or FACS buffer were added to the cells and incubated for 30 min at 4° C. After the incubation the cells were washed twice with 150 μl FACS buffer per well. […] The cells were incubated for an additional 30 min at 4° C. To remove unbound antibody, the cells were washed again twice with 150 μl per well FACS buffer. To fix the cells, 100 μl of FACS buffer containing 1% PFA were added to the wells. Before measuring, the cells were re-suspended in 150 μl FACS buffer. The fluorescence was measured using a BD flow cytometer.

[2] = target: T2, human NKG2D expressed on cells; assay: flow cytometry on NKG2D-positive NK92 cells, anti-human Fc secondary antibody
Method: as §1

[3] = target: T2, human NKG2D expressed on cells; assay: flow cytometry on NK cells (CD3- CD56+) within freshly isolated human PBMCs, anti-human Fc secondary antibody
Method: (§2) Viability of freshly isolated peripheral blood mononuclear cells (PBMCs) was checked and cells were adjusted to a density of 1 mio cells/ml in FACS buffer. 100 μl per well of the PBMCs (containing 0.1 mio cells) were seeded into a 96 well round bottom plate. The plate was centrifuged for 4 min at 400×g and the supernatant was removed. Then 0.5 μl FC BLOCK™ (BD Bioscience) in 20 μl total volume per well were added and the plate was incubated for 30 min at 4° C. Supernatant was removed and then 40 μl of the diluted anti-NKG2D antibodies were added to the cells and incubated for additional 30 min at 4° C. After the incubation, the cells were washed twice with 150 μl FACS buffer per well. […] The cells were incubated for an additional 30 min at 4° C. To remove unbound antibody, the cells were washed again twice with 150 μl per well FACS buffer. To fix the cells, 100 μl of FACS buffer containing 1% PFA were added to the wells. Before measuring the cells were re-suspended in 150 μl FACS buffer. The fluorescence was measured using a BD flow cytometer.

[4] = target: T2, human NKG2D expressed on cells; assay: flow cytometry on CD8 T cells (CD3+ CD8+) within freshly isolated human PBMCs, anti-human Fc secondary antibody
Method: as §2

[5] = target: T2, human NKG2D expressed on cells; assay: flow cytometry; NK92 cells
[6] = target: T3, his avi huNKG2D ECD; assay: SPR Biacore T200; antigen captured via anti-His, bispecific analyte
Method: (§3) On a CM5 chip, an anti-penta-His capture antibody (Qiagen Penta-His Antibody, BSA-free; #34660) was immobilized by standard amine coupling on flow cells 2 and 3 at approximately 12′000 RU. […] Regeneration at the level of the anti-H6 tag capture antibody was achieved by 2 pulses of 10 mM glycine/HCl pH 2.0 for 60 s. Data were double-referenced against the unimmobilized flow cell 1 and a zero concentration of the analyte. The sensorgrams of the analytes were fitted to a simple 1:1 Langmuir interaction model.

[7] = target: T4, hu N(A2B2)A-avi-His; assay: as above
Method: as §3

[8] = target: T2, human NKG2D expressed on cells; assay: flow cytometry on NK92 cells, PE anti-human Fc secondary antibody

Row | EC50 (read off the curve) [1] [nM] | EC50 (read off the curve) [2] [nM] | EC50 (read off the curve) [3] [nM] | EC50 (read off the curve) [4] [nM] | EC50 [5] [nM] | Kd [6] [nM] | Kd [7] [nM] | EC50 (read off the curve) [8] [nM] | Binder
1 | ~10 | ~4 | ~5 | ~5 | – | – | – | – | NKG2D×CEA bispecific antibody, anti-NKG2D 395 (C50S) / anti-CEA B9, M format (bispecific antibody, V domains shown, also called monovalent format M) VH 1: QEQLEQSGGGLVTPGGSLKLCCTASGFDFNTFWMTWVRQAPGKGLEWIGSIHGGSGSRDYASWVNGRFTLSRDIDQSTACLQVNSLTAADTAMYYCARPGYRSWSKTFDLWGQGTMVTVSS VL 1: DIQMTQSPSSLSASVGDRVTITCRASQDISGALNWYQQKPGKAPNLLIYAASSLQSGVPSRFSGSGSGTDYTLTISSLQPEDFATYYCQQANSFPLTFGGGTKVEIK VH 2: VQLVESGGGLVQPGRSLRLSCAASGFTVSSYWMHWVRQAPGKGLEWVGFIRNKANGGTTEYAASVKGRFTISRDDSKNTLYLQMNSLRAEDTAVYYCARDRGLRFYFDYWGQGTTVTVSS VL 2: QAVLTQPASLSASPGASASLTCTLRRGINVGAYSIYWYQQKPGSPPQYLLRYKSDSDKQQGSGVSSRFSASKDASANAGILLISGLQSEDEADYYCMIWHSGASAVFGGGTKLTVL
2 | – | – | – | – | 7.38 | 12.6 | 3.45 | ~3 | NKG2D×CEA bispecific antibody in M format, P1AE4980 / huA5B7 (bispecific antibody, human IgG1, kappa, L234A L235A, also called NKG2D×CEA bispecific antibody (humanized anti-NKG2D antibody variant P1AE4980, M format)) heavy 1: not shown heavy 2: EVQLLESGGGLVQPGGSLRLSCAASGFTFTDYYMNWVRQAPGKGLEWLGFIGNKANAYTTEYSASVKGRFTISRDKSKNTLYLQMNSLRAEDTATYYCTRDRGLRFYFDYWGQGTTVTVSSASTKGPSVFPLAPSSKSTSGGTAALGCLVEDYFPEPVTVSWNSGALTSGVHTFPAVLQSSGLYSLSSVVTVPSSSLGTQTYICNVNHKPSNTKVDEKVEPKSCDKTHTCPPCPAPEAAGGPSVFLFPPKPKDTLMISRTPEVTCVVVDVSHEDPEVKFNWYVDGVEVHNAKTKPREEQYNSTYRVVSVLTVLHQDWLNGKEYKCKVSNKALGAPIEKTISKAKGQPREPQVCTLPPSRDELTKNQVSLSCAVKGFYPSDIAVEWESNGQPENNYKTTPPVLDSDGSFFLVSKLTVDKSRWQQGNVFSCSVMHEALHNHYTQKSLSLSP light 1: QEQLVQSGAEVKKPGESLKISCKGSGFDFNTFWMTWVRQMPGKGLEWMGSIHGGSGSRDYSPSFQGQVTISADIDQSTAYLQWSSLKASDTAMYYCARPGYRSWSKTFDLWGQGTTVTVSSASVAAPSVFIFPPSDEQLKSGTASVVCLLNNFYPREAKVQWKVDNALQSGNSQESVTEQDSKDSTYSLSSTLTLSKADYEKHKVYACEVTHQGLSSPVTKSFNRGEC light 2: EIVLTQSPATLSLSPGERATLSCRASSSVTYIHWYQQKPGQAPRSWIYATSNLASGIPARFSGSGSGTDFTLTISSLEPEDFAVYYCQHWSSKPPTFGQGTKLEIKRTVAAPSVFIFPPSDRKLKSGTASVVCLLNNFYPREAKVQWKVDNALQSGNSQESVTEQDSKDSTYSLSSTLTLSKADYEKHKVYACEVTHQGLSSPVTKSFNRGEC
